Results as given in patent US20240124563A1 (NANJING ZAIMING PHARMACEUTICAL, published 2024).

Key:
[1] = molecular target: T1, human MSLN-R3-his protein (human, UniProt Q13421 487-598); experiment: ELISA, antibody 1 nM
T1 construct: MSLN-R3 = Met487-Ser598; also called hMSLN-R3-his; not shown: histidine tag

[2] = molecular target: T2, human MSLN-FL-his protein (human, UniProt Q13421 296-580); experiment: ELISA, antibody 1 nM
T2 construct: also called hMSLN-FL-his; human MSLN full-length protein; not shown: histidine tag

[3] = molecular target: T3, human MSLN-R1-his protein (human, UniProt Q13421 296-390); experiment: ELISA, antibody 1 nM
T3 construct: MSLN-R1 = Glu296-Thr390; also called hMSLN-R1-his; not shown: histidine tag
T3 chain: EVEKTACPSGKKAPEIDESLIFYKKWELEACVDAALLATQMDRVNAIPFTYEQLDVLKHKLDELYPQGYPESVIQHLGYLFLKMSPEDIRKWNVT

[4] = molecular target: T4, human MSLN-R2-his protein (human, UniProt Q13421 391-486); experiment: ELISA, antibody 1 nM
T4 construct: MSLN-R2 = Ser391-Asn486; also called hMSLN-R2-his; not shown: histidine tag

[5] = molecular target: T1, human MSLN-R3-his protein; experiment: ELISA, antibody 1 nM; remark: listed apart in the source
[6] = molecular target: T5, human MSLN-R3-3 polypeptide (purchased from GL Biochem, Cat. No. 406676) (human); experiment: ELISA, antibody 1 nM
T5 construct: Printed as Val539-Val588; also called hMSLN-R3-3
T5 peptide: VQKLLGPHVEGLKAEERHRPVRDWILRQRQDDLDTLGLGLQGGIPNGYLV

[7] = molecular target: T3, human MSLN-R1-his protein; experiment: ELISA, antibody 10 nM
[8] = molecular target: T4, human MSLN-R2-his protein; experiment: ELISA, antibody 10 nM
[9] = molecular target: T1, human MSLN-R3-his protein; experiment: ELISA, antibody 10 nM
[10] = molecular target: T3, human MSLN-R1-his protein; experiment: ELISA, antibody 0.1 nM
[11] = molecular target: T3, human MSLN-R1-his protein; experiment: ELISA, antibody 100 nM
[12] = molecular target: T4, human MSLN-R2-his protein; experiment: ELISA, antibody 100 nM
[13] = molecular target: T1, human MSLN-R3-his protein; experiment: ELISA, antibody 100 nM
[14] = molecular target: T3, human MSLN-R1-his protein; experiment: ELISA, antibody 0.01 nM
[15] = molecular target: T4, human MSLN-R2-his protein; experiment: ELISA, antibody 0.01 nM
[16] = molecular target: T1, human MSLN-R3-his protein; experiment: ELISA, antibody 0.01 nM
[17] = molecular target: T1, human MSLN-R3-his protein; experiment: ELISA, antibody 0.001 nM
[18] = molecular target: T3, human MSLN-R1-his protein; experiment: ELISA, antibody 0.0001 nM
[19] = molecular target: T4, human MSLN-R2-his protein; experiment: ELISA, antibody 0.0001 nM
[20] = molecular target: T1, human MSLN-R3-his protein; experiment: ELISA, antibody 0.0001 nM
[21] = molecular target: T3, human MSLN-R1-his protein; experiment: ELISA, antibody 0 nM (blank)
[22] = molecular target: T1, human MSLN-R3-his protein; experiment: ELISA, antibody 0 nM (blank)
[23] = molecular target: T6, human MSLN-FL-his protein (human, UniProt Q13421 296-580); experiment: competitive ELISA on MSLN-FL-His; other antibody: NB148-27 (3.m3)
T6 construct: Made in HEK293E cells, purified on nickel column; also called hMSLN-FL-his; not shown: histidine tag

[24] = molecular target: T6, human MSLN-FL-his protein; experiment: competitive ELISA on MSLN-FL-His; other antibody: NB148-46 (3.m5)
[25] = molecular target: T6, human MSLN-FL-his protein; experiment: competitive ELISA on MSLN-FL-His; other antibody: NB148-88 (3.m6)
[26] = molecular target: T6, human MSLN-FL-his protein; experiment: competitive ELISA on MSLN-FL-His; other antibody: NB149-31 (3.m7)
[27] = molecular target: T6, human MSLN-FL-his protein; experiment: competitive ELISA on MSLN-FL-His; other antibody: NB149-70 (3.m9)
[28] = molecular target: T6, human MSLN-FL-his protein; experiment: competitive ELISA on MSLN-FL-His; other antibody: Tab108 (R3) (3.m14)
[29] = molecular target: T6, human MSLN-FL-his protein; experiment: competitive ELISA on MSLN-FL-His; other antibody: Tab142 (R1) (3.m16)

T1 sequence (Q13421 495-606): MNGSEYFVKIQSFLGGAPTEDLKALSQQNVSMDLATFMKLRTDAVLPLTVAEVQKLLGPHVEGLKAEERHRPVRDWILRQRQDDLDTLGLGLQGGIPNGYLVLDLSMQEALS
T4 sequence (Q13421 other isoform, or with tags, fused parts or gaps): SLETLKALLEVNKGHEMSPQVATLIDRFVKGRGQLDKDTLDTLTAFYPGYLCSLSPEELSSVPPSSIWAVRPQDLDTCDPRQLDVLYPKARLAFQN

B1: Tab107 (YP3, hIgG1) (antibody, V domains shown)
VH: QEQLVESGGGLVQPGASLTLTCTASGIDFSRYYMCWVRQAPGKGLEGIACIYIGGSGSTYYASWAKGRFTISKASSTTVTLQMTSLTAADTATYFCARGTNLNYIFRLWGPGTLVTVSS
VL: DVVMTQTPSPVSAAVGGTVTIKCQASQSINNGLAWYQQKPGQPPRLLIYSASNLESGVPSRFKGSGSGTEFTLTISDLECDDAATYYCQCIWDGNSYVNAFGGGTEVVVRT
notes: also called YP3 human IgG1 antibody
Work on B1 yielded an OD450 nm [1] of 0.05, an OD450 nm [2] of 1.74 and an OD450 nm [3] of 0.05. The OD450 nm [4] was 0.05, the OD450 nm [5] was 0.05 and the OD450 nm [6] was 0.07. The OD450 nm [7] was 0.06, the OD450 nm [8] was 0.05 and the OD450 nm [9] was 0.05. The OD450 nm [10] was 0.05, the OD450 nm [11] was 0.08 and the OD450 nm [12] was 0.09. The OD450 nm [13] was 0.09, the OD450 nm [14] was 0.06 and the OD450 nm [15] was 0.04. The OD450 nm [16] was 0.04, the OD450 nm [17] was 0.05 and the OD450 nm [18] was 0.04. For the same binder, the OD450 nm [19] was 0.04, the OD450 nm [20] was 0.05 and the OD450 nm [21] was 0.05. The OD450 nm [22] was 0.05, the inhibition rate [23] was 1% and the inhibition rate [24] was 7%. The inhibition rate [25] was 4%, the inhibition rate [26] was -10% and the inhibition rate [27] was -10%. For the same binder, the inhibition rate [28] was 21% and the inhibition rate [29] was -9%.
